Source: doi:10.1101/2025.06.17.660082

Biological target: Biotinylated SP16 (human) (UniProt P01009)
Experiment: SPR

- Kd: 185 nM
Substance: Recombinant human insulin receptor/CD220 (28-944) protein, His Tag (from UniProt P06213-2 28-944)
